The source of these data is patent US20200148787A1 (KYMAB, published 2020).

Experiment [1] has as its target Human Factor X (FX) (human, UniProt P00742 41-179; P00742 183-488, limits assumed). Description: SPR Biacore 8K, IgG captured on anti-human IgG Fc, FX analyte, 25 C, 1:1 fit. The protocol:
Amine coupling kit (BioRad) was used to activate the surface of the chip. […] The immobilisation run was performed at 25° C. using HBS-EP (10 mM HEPES pH 7.4, 150 mM NaCl, 3 mM EDTA, 0.05% Polysorbate 20 pH 7.6) as immobilisation running buffer.
The run was performed at 25° C. using neutral pH (pH 7.4) HBS-P 1× (0.01 M HEPES pH 7.4, 0.15 M NaCl, 0.05% Polysorbate 20 pH 7.6)+CaCl₂) 2.5 mM as running buffer.

The target in experiment [2] is T1, Human factor IX (FIX) (human, UniProt P00740 47-461, 12 glutamic acid residues in the GLA domain post-translationally gamma-carboxylated (general description)).
T1 construct: mature; Bought reagent, used as SPR analyte
Description: SPR Biacore 8K, IgG captured on anti-human IgG Fc, FIX analyte, 25 C, 1:1 fit. The procedure:
An anti-human IgG Fc antibody was immobilised on CM4 chip (GE Healthcare catalog number BR100534) according to manufacturer's instructions. Amine coupling kit (BioRad) was used to activate the surface of the chip. […] The immobilisation run was performed at 25° C. using HBS-EP (10 mM HEPES pH 7.4, 150 mM NaCl, 3 mM EDTA, 0.05% Polysorbate 20 pH 7.6) as immobilisation running buffer.
Purified monospecific antibodies (referred to as ligand) from Example 13 were captured on the anti-human IgG Fc CM4 surface at approximately 2 μg/ml. The ligands were injected for 60 sec at 10 μl/min in all the active channels of all 8 flow channels. The run was performed at 25° C. using neutral pH (pH 7.4) HBS-P 1× (0.01 M HEPES pH 7.4, 0.15 M NaCl, 0.05% Polysorbate 20 pH 7.6)+CaCl₂) 2.5 mM as running buffer. Human factor IX (FIX) (Enzyme Research Laboratories cat n. HFIX 47064) was reconstituted at 1 mg/ml (MW ˜55 KDa) in the running buffer and used as analyte. […] Three injections of 10 mM glycine pH 1.5 for 60 sec at 10 μl/min were used for the regeneration phase.
The association and dissociation data of the interaction were fitted using biomolecular reaction model (1:1 Langmuir model). The values for association rate constant (kₒₙ), dissociation rate constant (koff) and dissociation constant (KD) were calculated from the binding data by BIAevaluation software.
(In general: Surface plasmon resonance follows binding to a sensor surface in real time, without labels.)

Sequence of Human Factor X (FX) (P00742 41-179 limits assumed, form in doubt, chain 1 of 2): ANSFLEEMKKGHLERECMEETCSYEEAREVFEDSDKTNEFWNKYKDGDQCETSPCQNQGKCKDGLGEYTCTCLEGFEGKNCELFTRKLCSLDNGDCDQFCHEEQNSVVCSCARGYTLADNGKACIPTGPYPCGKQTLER
Sequence of Human Factor X (FX) (P00742 183-488 limits assumed, form in doubt, chain 2 of 2): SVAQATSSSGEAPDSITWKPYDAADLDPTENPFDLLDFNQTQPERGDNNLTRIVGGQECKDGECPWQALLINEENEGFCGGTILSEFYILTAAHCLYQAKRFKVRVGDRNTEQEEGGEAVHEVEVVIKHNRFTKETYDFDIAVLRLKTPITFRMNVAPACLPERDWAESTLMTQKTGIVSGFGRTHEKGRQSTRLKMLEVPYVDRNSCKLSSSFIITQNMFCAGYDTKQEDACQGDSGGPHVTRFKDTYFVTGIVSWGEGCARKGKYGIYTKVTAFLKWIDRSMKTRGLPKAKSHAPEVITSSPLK

B1: T25H_IgG4PE + T25L_IgK (antibody, V domains shown)
VH: QVQLQESGPGLVKPSETLSLTCTVSGGSISSGIYYWSWIRQHPGKGLEWIGYINNSGNTYYNPSLKGRVNISVDTSKKQFSLKLSSVTDADTAVYYCARGGSGDYWGQGTLVTVSS
VL: EIVLTQSPATLSLSPGERATLSCRTSQSINNYLAWFQQKPGQAPRLLIYDASNRAPGIPARFSGSGSGTDFTLTISSLEPEDFVVYFCQQRNNWPPTFGQGTKVEIKR
notes: Monospecific IgG4PE, kappa; Kappa junction as noted for T14
As usually defined, the Kd is the constant that tells how readily two partners part at equilibrium. Lower therefore signals tighter binding. Consider B1, for which, in experiment [1], the Kd was 3.57 nM.

B2: N225H_IgG4PE + N128L_IgL (antibody, V domains shown)
VH: EVQLVESGGGFVQPGGSLRLSCAVSGFTFNSYWMSWVRQAPGKGLEWVANINQDGSEKFYVASVKGRFTISRDNAKKSVYLQMNSLRAEDTAVYYCAREGYSSSSYYGMDVWGQGTTVTVSS
VL: SYVLTQPPSVSVAPGETARITCGGDNIGRKSVYWYQQKSGQAPVLVIYYDSDRPSGIPERFSGSNSGNTATLTISRVEAGDEADYYCQVWDGSSDHWVFGGGTKLTVLG
notes: Monospecific IgG4PE with lambda light chain
As usually defined, the koff is a measure of how fast the partners let go of each other. Higher therefore signals fast dissociation. What is called kon is a measure of how fast the partners come together. Read a low kon as slower complex formation. With B2, in experiment [2], the Kd stood at 428 nM, the koff was determined as 0.031 s⁻¹ and the kon worked out at 72300 M⁻¹ s⁻¹.
